The source of these data is PMC4323944 (Journal of molecular biology, 2014).

Series [1] deals with the molecule itself. Put plainly: pulsed dipolar ESR spectroscopy.
Series [2] concerns the molecule itself. The series can be described thus: SEC-MALS. (In general: In gel filtration, larger molecules generally elute earlier.)
In series [3] the target is T1, T. maritima FliM middle domain (FliMM, residues 46-242) (Thermotoga maritima, UniProt Q9WZE6 46-242).
T1 sequence (looked up): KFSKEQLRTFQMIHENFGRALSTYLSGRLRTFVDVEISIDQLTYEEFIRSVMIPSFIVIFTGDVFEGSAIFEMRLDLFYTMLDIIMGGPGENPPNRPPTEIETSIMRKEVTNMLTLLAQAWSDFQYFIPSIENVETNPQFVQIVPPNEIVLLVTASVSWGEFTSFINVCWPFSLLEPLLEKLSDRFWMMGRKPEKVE
The series can be described thus: crystal structure.

Substitutions are numbered along the chain they refer to. Names may count otherwise.

B1: FliG Q129W 160-R1 (FliGMC Q129W K160C, MTSSL spin-labeled) (domain or fragment, Thermotoga maritima, UniProt Q9WY63 116-335, looked up)
chain: PVQLVNFLQSEHPWTIAVVLSYLDPPVAAQILGALPEELQTEVLCRIALLERTSPEVVKEIERNLEKKISGFVSRTFSKVGGIDTAAEIMNNLDRTTEKKIMDKLVQENPELADEIRRRMFVFEDILKLDDRSIQLVLREVDTRDLALALKGASDELKEKIFKNMSKRAAALLKDELEYMGPVRLKDVEEAQQKIINIIRRLEEAGEIVIARGGGEELIM
modifications: nitroxide side chain R1 (MTSSL on Cys 160)
Consider B1, for which, in series [1], the binding result is “binds”.

B2: FliG 160-R1 (FliGMC K160C, MTSSL spin-labeled) (domain or fragment, Thermotoga maritima, UniProt Q9WY63 116-335, looked up)
chain: B1 chain with W14Q
modifications: nitroxide side chain R1 (MTSSL on Cys 160)
In general, stoichiometry N refers to the number of molecules, sites or subunits per partner or assembly. Take B2: the “stoichiometry N” value in series [2] was found to be 2.

B3: FliG 174-R1 (FliGMC K174C, MTSSL spin-labeled) (domain or fragment, Thermotoga maritima, UniProt Q9WY63 116-335, looked up)
chain: B1 chain with W14Q, C45K, K59C
modifications: nitroxide side chain R1 (MTSSL on Cys 174)
On to B3, for which, in series [1], the binding result was “binds”.

B4: T. maritima FliG middle domain (FliGM, residues 117-195) (domain or fragment, Thermotoga maritima, UniProt Q9WY63 117-195, looked up)
chain: VQLVNFLQSEHPQTIAVVLSYLDPPVAAQILGALPEELQTEVLKRIALLERTSPEVVKEIERNLEKKISGFVSRTFSKV
Take B4: the binding result in series [3] is “binds”.
